Source: the domain aggregation screens of Martell et al. (2025)

Experiment: soluble fraction after stress (log2 fold change); higher = more stays soluble; pooled small domains, quantitative proteomics
Details: stress: 75 degC
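Note: 20 min heating vs room temperature control held 20 min.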

Row | Sequence | soluble fraction (log2)
1 | HMTATKDLPFSTFITEVEKGNITSVDIKGNQIEGTFSNGAKFKTYSPNYPNLVERLADKGVAISAGPS | 0.0934
2 | HMTAVPADVETVTGFTALDRAGLDTLLARLGLAMDLEDLSFLQAYFRDTERRDPTLTEIRVVDTYWSDH | -1.1
3 | HMTDAEQHEALLFKQVVDGLPQTLRDTFVLSRHAGMTYAEISAHTGTPIKTVESRMAKALELIAQRMR | -1.27
4 | HMTDDALIGKTAQVTVAIKPGSVGQITARVGDERVERLARASADAEIAAGSLVTIKSIAGDSVIVAPE | 0.317
5 | HMTDDPGLSRAENRELQTLLLDRGHDIGQPDGLIGAKTRAAIRAEQSRLNMPVNGRGGQKLLRALRL | 0.262
6 | HMTDFLKTRIDTLGLSTRTLNALSEANVRTIGGIARKKQEDLLEIDGIGEKGIQEIKKMLGEYGITL | -0.303
7 | HMTDFSDLSFKYNSEEKDVLNSINLKINGGEMTSLVGHSGAGKTTILNLIPRFYEKSKGDISIDGQSIY | 0.0241
8 | HMTDGLTVPMQGVVIRYKAKKGDKVAVGDAVAVLEAMKMEQNIFANKSGTIKEIYIKEGTTVTPGDVLMSI | -0.315
9 | HMTDLNDTQIKILELLSADASLSAAKMAGQLGIAGRNVEANIKKLKEKGILIRHGSPKSGYWEIVN | -0.349
10 | HMTDNSTTTIRNLKIEWLLEEIRNAVRTGVSVDAAVERISNNPFVKPPEDLLNEARIIFLQNAGQI | -0.79
11 | HMTDPVLYEERDDIAIITINRPEKKNTLTDAVIQGIADGIDAATKSADVVAVVLRGAGDTLTAGYDLTA | 0.213
12 | HMTDSDTQDIDVGELRVGHFVFLDLSWIRHPFPLSSFKIQSAEQIKTIRSLGLRRIRYSPGRSGP | -1.31
13 | HMTDSSEILEAALKEAEDAAHEVLNGTFSVQLEPQKAYIRRLQHMLIDRMNLSSTSKGKEPYRSLLVYR | -1.41
14 | HMTDTDVLSSRLSALSSGRTSAVRLRDGVLSLVLDVGGLSIEARKAMTTAIESTARATPGVEAVRIAET | -0.479
15 | HMTDTSFPRLGAPEEELLSFLAKWEIDAEDAHYTKFSLYYQSTGKMMRDWKATWRAWKERQSELNAQR | -2.33
16 | HMTDVGLEAAKAAALKHAGLSADQVTGLTAKLDWDDGQRVYEVDFWQGSTEYEYEINADGTVRQYESEAH | ≥ 1.04
17 | HMTDVRFIDIPVTEHHPWNGMKVRDLQLPPGTLLVFLSHPGEKNTVPHGETVLRSGDVLVLGATAYTGQ | -0.753
18 | HMTDVRFISIPIQKEHPWNRKLVSELNLPPGTLLVFLRRTGENIVPNGKTMIQEGDVLVLGASAYR | -1.31
19 | HMTEALEFTVEDLRMAGLVNSSFSRRRRELFSEKLGIGYGNGKSLLKKLNGYGITREEFNGAIQSLSD | -0.817
20 | HMTEIILTARSGRHAVRHRLEGLGYTLTPEELERVHQRFLAVADAKKEVFDEDLHALMADERGT | -0.219
21 | HMTEKMILKWKEALERMNDDFTTKDWLNVVIHEMGKSERTAYGWLSDMKRSGIIKDLGYGSWLKVLE | -1.37
22 | HMTEKPTREAHILDQLARDGGVLVAALSRELGVSEVTIRSDLRDLEAAGLLQRTHGGAQASSFQTVL | -0.0942
23 | HMTELNNTQRAAVLLLALDEDSAAEVFKHLSAREVQEVSQEMAKLGNISHDQMRQVLDDFYDESEQF | -0.127

Row | Sequence | soluble fraction (log2)
24 | HMTELPLTPRSKRILEMSALEARRLNHSYIGTEHLLMAIIRDGDGVAAKILESLGVNLPNFYTDTVRSIE | 0.0533
25 | HMTELSLSEQAYQQLRRMIVRLDFAPGDVLREEALQEALGMSRTPIREALQRLAREHFVTVIPRRGMFVS | -3.15
26 | HMTELVIPDYFSKALAKNKKAKQVFEAFAYSHRKEYLQWITEAKTEETRNKRMATAIEWIAEGKGRNWKYA | -3.45
27 | HMTEPIESVTTIAGRRIPYRLVRSLRARRMRMTIKESQVTVTLPRGVPLGEAERFLQQNAAWLFKQLDKP | -2.63
28 | HMTESIHVGSKVTINNNAKRWATGQNIYSGVKGKTYTVIQMNGSRLLLDKVISWINKGDVHLPGS | -1.94
29 | HMTESIKRDEAIRLNNGRIYTLDAAKIGTNEYEVMLFNPRTGEEIDSAKTSTEADAILQFDRLRRMYHR | 0.0129
30 | HMTETELYDEVNRLIGLHLSERDRMILIMRDRDEFEIDAIAARTGLSEGNIRLILSRARRTVREAYRNNI | -4.11
31 | HMTETNSVTINERLTLYRRSRSGRWQARVKLNTGEWHRFSTGTADFEKAKESAHRELHNVGFRAENNLPQ | -1.16
32 | HMTFDWAAYEISEKEIRVMSLVAEGFSNKEIAQELFLSEGTVRNYISNILEKLGLRDRTQLAVHYLKAV | -3.83
33 | HMTFENMFIENSGETLDREFLVENLRGISWQSYDRSVDVLVSRLRGKLGETPNNTRFIKTIHGVGYKFIGE | 0.353
34 | HMTFGENLIRLRRQQGLSQEQLGMRIGVSRQTVSKWELNDTTPEMEKLIALADLFGLSLDELTGRV | -0.974
35 | HMTFNLDVDGDDQVTALGDGLMIIRKLFGATFAGDALTNKAISPDATRTTDEIHAYIEKGITSGVLD | -0.403
36 | HMTFPAILRELLEKHPQTGKRTTLKELGEAVGTRQQSISLYRNGDTQPSPDILVRIAAFFGVSVDYLL | -0.499
37 | HMTFPYTSLKDAPKNMKEIDGVPLTLDQVNQIAKVADSIGVSKEKNGYAIAKSQFKKSHHIENNRWVKNK | -0.179
38 | HMTFVHTQIEATKEWIISHPLDKHPAVAVVDSAGSIVIGEVDYISKSIVRLRFTAEFSGKAYL | -2.06
39 | HMTGAEGKLARYLLTVPSGEPLRLSATDLAKRLGISRASLYRAFQALEDARLIRREGKSMYVLDPAGLEGV | -0.723
40 | HMTGENWAERSRQLAAAGLLVLGKEAQEKIASLPNLIPLIEAAAASDTRLLNAQTIDELLSFVPTEETI | -0.104
41 | HMTGESVPAPLSGTIFKILVAPGEQVEEGQTVIILEAMKMETEISAPRSGVVGAINIKEGDSVQVGQSLFT | 0.232
42 | HMTGIKISVDRLQIGNYVKLPLNWKDHPFLFSSFAIKSQEEIDLIRRLGLKQVIMFPDKSSMPPKPV | -1.55
43 | HMTGLSNFEFNQIKLDLMHELTQTPLRLTDLVNRITSFENEKTITVIRFLVDEGILLLKDDTLSVAKID | -3.06
44 | HMTGMEAAEFGKRIMKLRKQKGMTQSKLAEQINVSNKAISRWETGEGFPEITLLKPLAKALGTTVDELFGE | -0.334
45 | HMTGMEKFLTIPSIRESTAAFEREYLIHYLDENAWQVSKTAAAIGIERTTLYKKMKQLGIVPIEE | -3.22
46 | HMTGNWRQMHKVKSKETIYGIAKEYGITVDELTKANPGMEAPGYTLKKGDYIFIPYATADANV | -0.432

Row | Sequence | soluble fraction (log2)
47 | HMTGQEGLIGAHGVALTRLSNEEGEVKVQGEIWQARSDQEVAKGASIEVVHVDGLVLTVRPQH | -0.0319
48 | HMTGQLTEEELKQRQERAMSNPEIQGILSDPVMRQVLQDMSTDPKAAAEHQRNPTIMAKIQKLINAGIVQV | 0.00889
49 | HMTGSETLQDIFAHLEAGTVRTALSLIPRLDAVEYEQNRQRIAELAGVRPSALDDLRKQAKREEN | ≥ 1.04
50 | HMTGTKEQQVVMLNNILQKQLQAFELQGKRDYPMVTMKNMYNTLSKMVENAGLQTVESYFVDPIKGQQM | -0.694
51 | HMTGVEAIERYLASGVIPGVGPVLAKRLVERFGARTLEVIEDSPRRLTQVPGIGRQKARQIHQALKAQRE | -0.406
52 | HMTGYVMIRVDGLSLEKFLNMAAEAGVRVSDVRRASYTVLYAVVSPRDLKKLQSVAPEKYTVTVR | -1.18
53 | HMTHANAALTPRHRLKVARLVVDEGWPVSEVAARFQVSWPTVKRWADRYRAGQSMQDRSSRP | -1.96
54 | HMTHEAEDLNALRMMVRDPIFSSDEPDLQQLRGAVAHAPQFVDRFKELYNDYQRLAEFVQNSL | -0.993
55 | HMTHFRTDERRREILSTIEADGRVSVSEIASRFDVSPVTIRSDLNYLAIQGKLKRVRGGAVLLDH | -1.17
56 | HMTIDNPESQKIMDMVPFFFQSRNYDEAIEALTYVIEQEPQFSEAYNKRATFYFMMGDLENSMKDIEITLA | -0.29
57 | HMTIGIGKSLDFNTSGEKAYRIYNFKGAYVGTFKASDMTSLKNEVQKSNVKAGAYMVRSLDGHVNRLIEIK | -1.49
58 | HMTIGKIVNIIEGSYANVRSAPDQNSEPIGRAYPGDAFLVDPLGSSGDWVKVTYEGQSGFIFQAYISV | -3.94
59 | HMTIGKRIKRRRIELKMSIDSLARTIGKDRSTVYRYESGAIDKVSSDVLAKLATALNTTPAYLIGL | -4.61
60 | HMTIKNHIDEILKKEPFILENIKNGLINISALARQIEPQLSRKVGKKLNVNAIIMTIKRMEIDQLNK | -2.25
61 | HMTIPNGTVVNGTVLEAREAGAYLVRVAGQTLTAQANLPLLVGQHFRAVWDSSGDIPVLRLSDAEQALLGK | -0.362
62 | HMTIPRLPFAFAKRFGIVLDNRPSGFVAAHKEGLLPHVLLEVQRFLGDAYTLEVVSDDDFERILGQVYQT | -3.72
63 | HMTIPSYAEAVRYVRRQPRINTSTLADGLGIRWSLALDYLERMARSGVVGAIEDDGWWPVAR | -0.977
64 | HMTIRIPEEEYLTRAKRAAQMTAERGLDALFLFGSEGDFQNVRYFTSVTPIWERLGVVITASGKAAMLTGP | -0.145
65 | HMTIRPEDVELVPAEDGYMQGDVVSNIFKGVHYELEVKANGYDWMVHTTKYVEVGSHVGIKVIPFNIQV | 0.322
66 | HMTISPYTKDDFLKGTKPFEDVYAHKADPFVHDRALEQMTIWAKSVGVNGFKKLYKAYIDSLRIKNKEI | -0.315
67 | HMTKAGVDAWTRGDYAAAVKEWQAQAAKGDADAIFNLGQAFKLGKGVPQDLIKAEQLFGQAAA | 0.246
68 | HMTKDEIIIQSIIDAAKKLMQQYGLNKTTMEDIAKEAGKGKSTLYHYFKSKEEIFDQVINQEID | 0.0589
69 | HMTKEEFLDEIKKELGFMPYEEVIKAEKYFESYFNGSEADEKVIERFGSPKYAAQNYYRTHVAN | 0.029
